Consider four molecules from patent US20250340655A1, “EPHA2-TARGETING ANTIBODIES AND THEIR APPLICATIONS IN CANCER TREATMENT” (TAIPEI MEDICAL UNIVERSITY, priority 2022, published 2025).

Test [1] relates to BxPc-3 tumor. Description: BxPc-3 tumor xenograft model (IgG hSD5, gemcitabine). The note with it: BxPc-3 xenograft, iv. It is filed as in vivo, mouse. Here is the method: (§1) The freshly prepared BxPc-3 and Mia PaCa-2 cancer cells were harvested during the log growth phase and resuspended in PBS for tumor implantation. Each NOD/SCID mouse was subcutaneously inoculated with cancer cells (5×10^6 to BxPc-3 and 1×10^7 to Mia PaCa-2) for tumor formation. The tumor size was measured twice weekly, and the volume was calculated as follows: V=0.5lw^2, where l=the length and w=the width. When the tumor size was approximately 100 mm3, animals were divided into groups that received (a) vehicle alone through intravenous injection (i.v.) once weekly (qwk), (b) control human IgG1 at 20 mg/kg through i.v. qwk, (c) and (d) hSD5 IgG1 at 2 or 20 mg/kg through i.v. qwk, (e) and (f) gemcitabine at 20 or 100 mg/kg through i.v. twice weekly (biw), or (g) hSD5 IgG1 at 2 mg/kg through i.v. qwk combined with gemcitabine at 20 mg/kg through i.v. biw. At the end of the experiment, the antitumor effects were quantified by dividing the tumor volumes in the treatment groups by those in the control groups and multiplying them by 100 to represent tumor growth inhibition (TGI; %). The mice were also examined frequently for overt signs of adverse drug-related side effects.
(§2) The pancreatic tissue microarray slide (US Biomax, PA483e) was used to detect and analyze the EphA2 expression of clinical samples. In the xenograft animal model, the excised BxPc-3 and Mia PaCa-2 tumors were fixed in formalin, embedded in paraffin, and sliced for immunohistochemical staining (IHC). Commercial antibodies (Cell signaling, Dako; Agilent Technologies; and Abcam) were used for staining the EphA2 molecule, cell proliferation marker Ki-67, and apoptosis marker cleaved caspase 3. The effects of staining were observed using a Zeiss Axioskop-2 microscope (Carl Zeiss).
(§3) Administration of IgG hSD5 (20 mg/kg, iv, qwk, indicated as blue filled inverted triangles) and Gemcitabine (100 mg/kg, iv, biw, indicated as orange filled squares) were used to test the inhibition effect on BxPc-3 tumor growth, n=6, TGI denotes Tumor growth inhibition. (FIG. 7A) Administration of IgG hSD5 (2 mg/kg, iv, qwk, indicated by solid black triangles), Gemcitabine (20 mg/kg, iv, biw, indicated by black open squares), and the experimental group that combined IgG and Gemcitabine treatment simultaneously (indicated by solid red diamonds) were used to teat the growth inhibitory effect of BxPc-3 on the tumor. (FIG. 7B) During treatments, the weight changes of each mouse group were tracked. (FIG. 7C) The expression levels of EphA2, cell proliferation marker Ki67, and apoptosis-related marker cleaved caspase3 in the excised tumor groups were analyzed by IHC staining. (FIG. 7D)

In test [2] the test system is Mia PaCa-2 tumor. Description: Mia PaCa-2 tumor xenograft model (IgG hSD5, gemcitabine). Type of test: in vivo, mouse. The note with it: Mia PaCa-2 xenograft. Here is the method:
as §1, §2
as §3, with “Mia PaCa-2 xenograft mice was also used to determine the inhibitory effect of IgG hSD5 on in vivo tumor growth. Administration of” for “Administration of”, “inhibition. (FIG. 8A) Administration of” for “inhibition. (FIG. 7A) Administration of”, “tumor. (FIG. 8B) During treatments,” for “tumor. (FIG. 7B) During treatments,”, “tracked. (FIG. 8C) The expression” for “tracked. (FIG. 7C) The expression”, “staining. (FIG. 8D)” for “staining. (FIG. 7D)”

The subject of test [3] is BxPc-3 cells. The test is described as follows: Antibody internalization (endocytosis) assay. Type of test: cell-based, human. The conditions noted are these: BxPc-3, 1 h, 37° C. vs 4° C. (FIG. 6B). Here is the method: BxPc-3 cells were seeded on cover glasses placed in the wells of a 6-well culture plate. The BxPc-3 seeded glass slides were incubated with ephrin A1-Fc (Sino Biological) or IgG hSD5 for 1 h at 37° C. or 4° C. After washing with PBS, the cells were fixed with 100% ice methanol for 10 min. Next, the cells were stained with an FITC-conjugated anti-human Fc antibody and were subsequently mounted with ProLong Diamond Antifade Mountant comprising 4′,6-diamidino-2-phenylindole for nuclear counterstaining (Invitrogen). The cells were imaged using a confocal microscope (Leica Microsystems).

Test [4] deals with T1, EphA2pep_P1 (BSA-CGGGWDLMQNIMNDMPIYMYSV) (conjugated with BSA (printed BSA-C...)).
T1 peptide: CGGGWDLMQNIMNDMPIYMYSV
Description: peptide ELISA on BSA-conjugated peptides. The method, then:
(§4) These peptides were synthesized and conjugated with BSA (Kelowna International Scientific). The BSA-conjugated peptides were individually coated on a 96-well microplate at 4° C. overnight. […] Next, an HRP-conjugated anti-HA tag antibody (Cell Signaling Technology) was used to detect bound scFv. Finally, the TMB substrate was added for development, and the reaction was stopped by adding 1 N HCl. Absorbance was measured by determining the OD at 450 nm. […] Blocking with 3% BSA was performed at RT for 1 h. […] After the membrane was washed, the HRP-conjugated anti-HA tag antibody was added, and the reaction was allowed to proceed for 1 h at RT. Lastly, DAB was used to initiate the coloration reaction.
(§5) The two short peptides located on the designed activation site of EphA2 are EphA2pep_P1 and EphA2pep_P2, respectively. The long peptide formed by linking the two short peptides is EphA2pep_PIP2. NCIpep and NC2pep are two irrelevant peptides as the negative control. EphA2 ECD is a recombinant EphA2 extracellular domain protein.
(An ELISA detects its analyte on a solid surface through an enzyme-linked reagent.)

The target of test [5] is T2, EphA2pep_P2 (BSA-CGGGGGGSVSSDFEARHV).
T2 peptide: {BSA}-CGGGGGGSVSSDFEARHV
The test is described as follows: peptide ELISA on BSA-conjugated peptides. Here is the method:
as §4, §5

Test [6] deals with T3, EphA2pep_PIP2 (BSA-CGGGWDLMQNIMNDMPIYMYSVGGGGGGSVSSDFEARHV) (conjugated with BSA (printed BSA-C...)).
T3 construct: also called long peptide
T3 peptide: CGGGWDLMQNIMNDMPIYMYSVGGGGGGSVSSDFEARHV
Description: peptide ELISA on BSA-conjugated peptides. The method, then: as §4, §5

For test [7], the target named is T4, recombinant EphA2 protein (UniProt P29317 24-537, limits assumed).
T4 construct: Coated on ELISA plates, run on Native-PAGE and used in biolayer interferometry
Description: biolayer interferometry. For orientation: In BLI a coated tip is dipped into the sample, and binding shifts an interference pattern.

The target in test [8] is T4, recombinant EphA2 protein. Description: ELISA, serially diluted scFv on coated recombinant EphA2.
Description: The recombinant EphA2 protein (0.5 ug/well) was coated onto the wells of the microtiter plate at 4° C. overnight. The wells were blocked with 5% skim milk, and scFv or phage was then added to the wells at room temperature for 1 h. After the wells were washed with PBST, the bound scFv or phage was then detected and developed using horseradish peroxidase (HRP)-conjugated goat anti-chicken light chain antibodies (Bethyl Laboratories) or HRP-conjugated anti-M13 antibodies (GE Healthcare Life Science). Finally, the substrate 3,5,5-tetramethubezidine dihydrochloride (TMB) was added for signal development. The reaction was stopped by adding 1 N HCl, and absorbance was measured by determining optical density (OD) at 450 nm.
Four representative scFvs were serially diluted to test the percentage of binding to EphA2 molecules. (FIG. 3C) After gene sequencing, we serially diluted the four isolated representative scFvs to test the binding reaction to EphA2.

Ends that are not written are not given here. BSA = bovine serum albumin carrier conjugated to the peptide

T4 sequence (P29317 24-537 limits assumed): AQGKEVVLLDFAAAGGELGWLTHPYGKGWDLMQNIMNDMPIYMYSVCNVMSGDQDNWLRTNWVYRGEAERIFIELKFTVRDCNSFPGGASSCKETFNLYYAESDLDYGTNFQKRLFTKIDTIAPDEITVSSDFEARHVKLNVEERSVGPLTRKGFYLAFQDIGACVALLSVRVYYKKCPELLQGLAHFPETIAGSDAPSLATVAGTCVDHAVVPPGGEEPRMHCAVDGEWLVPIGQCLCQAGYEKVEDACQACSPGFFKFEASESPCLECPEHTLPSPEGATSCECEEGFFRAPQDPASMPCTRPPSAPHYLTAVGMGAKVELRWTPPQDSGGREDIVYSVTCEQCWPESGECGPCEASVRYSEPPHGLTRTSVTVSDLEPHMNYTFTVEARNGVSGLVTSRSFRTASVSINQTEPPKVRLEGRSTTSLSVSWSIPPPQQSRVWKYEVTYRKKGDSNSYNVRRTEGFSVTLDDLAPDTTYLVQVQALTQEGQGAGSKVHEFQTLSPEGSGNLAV

As to `Nc1ccn([C@@H]2O[C@H](CO)[C@@H](O)C2(F)F)c(=O)n1` [Gemcitabine, reference compound], the “TGI (tumor growth inhibition)” value was 34.6% in test [1] (20 mg/kg, biw); 59.8% in test [1] (100 mg/kg, qwk); 38.7% in test [2] (20 mg/kg gemcitabine); 73.7% in test [2] (100 mg/kg).

B1: ephrin-A1: ligand of EphA2, recombinant, used as a positive control (protein)
chain: DRHTVFWNSSNPKFRNEDYTIHVQLNDYVDIICPHYEDHSVADAAMEQYILYLVEHEEYQLCQPQSKDQVRWQCNRPSAKHGPEKLSEKFQRFTPFTLGKEFKEGHSYYYISKPIHQHEDRCLRLKVTVSGKITHSPQAHDNPQEKRLAADDPEVRVLHSIGHS
modifications: left off: a dimerising Fc or GST
notes: ligand of EphA2, recombinant, used as a positive control
As for B1, the “endocytosis after targeting EphA2” value in test [3] is recorded as “endocytosed from the cell membrane into the cytoplasm”.

B2: Humanized IgG hSD5 (antibody, V domains shown)
VH: QVQLVESGGGLVQPGGSLRLSCAASGFTFSDYGMGWVRQAPGKGLEWVAGISAAGSFTPYGAAVKGRFTISRDNSKNTVYLQMNSLRAEDTAVYYCARIPSGYRAGEIYTWGQGTLVTVSS
VL: LTQPPSVSVSPGQTVRITCSGSSGSYGWYQQKSPGQAPVTLIYDNDKRPSGIPERFSGSSSGSTSTLTISGVQAEDEADYYCGSADSSTYVGMFGGGTKLTVL
notes: also called hSD5 IgG; hSD5 IgG1
The Kd is the concentration at which binding is half-saturated. In the case of B2, the binding result in test [4], in test [5] and in test [6] was “binds” each time. Moreover, the Kd in test [7] stood at 2.06 nM.

B3: scFv SD5 (scFv)
scFv: LTQPSSVSANLGETVKIPCSGSSGSYGWYQQKSPGSAPVTLIYDNDKRPSDIPSRFFGSTSGSTSTLTITGVQAEDEAVYFCGSADSSTYVGMFGAGTTLTVLGQSSRSSTVTLDESGGGLQTPGGGLSLVCKASGFTFSDYGMGWVRQAPGKGLEFVAGISAAGSFTPYGAAVKGRATISRDNGQSTVRLQLNNLRSEDTGIYYCARIPSGYRAGEIYTWGQGTEVIVSS
notes: also called antibody SD5
The EC50 is the concentration that produces a half-maximal response. For the molecule B3, the EC50 in test [8] amounted to 1.8 nM.
